Assay: soluble on expression in E. coli; label from the status in PepcDB or PDB records

Sequence	soluble on expression in E. coli
MTASKIPIKKVCEHCKQEFIALKTTTKYCSHRCNSRAYKAQKREERVRRTELSEQEKKVSDIIDKPYLSISEAGRLLGISRHTIYRYIYSGNLKAYNLSSQRSIVKREDIERMLAERPYEKRQPRDAIVITELYTTDEVCDIHNISRSSLFAIAKRENIPRTYNRGKTYWSKRHIDAYFAKQAPASHIEEWCTAVEIQERFDMTLTAVYNFISDHNIPRKKVKGKSYYSTKHVEAAKGVLDKAAPSYYTVREAMEKFGLTRDQLYQYTKRYNVPKLKQGRNVLISQQELDEVLKPPSITR	not soluble
MGHHHHHHHHHHSSGHIDDDDKHMKNKKDKGLLSGKLTPAQSKNPAKNELYLVEGDSAGGSAKQGRDRKFQAILPLRGKVINTAKAKMADILKNEEINTMIYTIGAGVGADFSIEDANYDKIIIMTDADTDGAHIQTLLLTFFYRYMRPLVEAGHVYIALPPLYKMSKGKGKKEEVAYAWTDGELEELRKQFGKGATLQRYKGLGEMNADQLWETTMNPETRTLIRVTIEDLARAERRVNVLMGDKVEPRRKWIEDNVKFTLEEATVF	soluble
SMQEKREELRMRSENQAMNIVLQRQYDQYRLSIDNIELLRREFHDLKHYMIAIRSEQDPKKKEQYLLEMEEAIHTQEALTNTGNSVLDVVLTTKSTYCMQKHITFTCMADGKLISFMHVKDICSIFGNALDNAIECVSQFDDPEKRLITLSMYQKNQLLMIQCENYTETSLSLKPDQLPTTTKQNAGYHGYGLKSIQQAARKYGGSMTLHAEDNWFTLQVLIPVES	not soluble
MAHHHHHHMEFLVADAERMYTVNGRLQHLSYWSYKILARSFLESYQNPPLLNSNRAAQNFSKGSGYVDFCTWHRYSEFEWLAAQVELEFPGMLFPPIPSKETDGTVDKFTELLTSVKENNSTTRENPLVKKRMRHLQLTFNAIAQLHELHESPLLKAFVTLDELSWCAFREEREKKMKTSILTIFKAKGLSIIAKLRSFRESSNHDYTLDSPLDSVATRQSDLGELLNTCFAQVEYINKYCISEWRHWSDVNKLRGSIQGSPMPWTACYGGHHVQHSKHPGLEGVVREINNDAAVVEWNGQGGKLSKVPLDELNYPSSGISDPAIFALQELASQVESYFMYLSRSSGVAVLRDVEDLLWFLSSYANRCVRVIRRFREMRSEVRYLTRVVEKKASVEQFEQLERLKQILSKGTSRFMEQYNNFYRCFMRNSLMEVAHKFGRVITVIMSDDQWNERLSVAKTMLTLSLPLLPEEREEIFAEDASKRDSPPMKQVNGLEG	soluble
MGSDKIHHHHHHMTERFQQKNISVPDGIWIMKQTWNDVLFAHWPVDVSILRALVPSVLELDTYNGQAWISMLPFMLTNLRARYLPVIPGARAFPELNLRTYVTYKGKPGIYFFSLDADHRLAVLGARTFFHLPYFYADMKSEKNGDAIDYVSKRKNDKEAAFHAAYRPISAPFTAEKDSLDYWLTDDTGSTPLIAISSITKTSIIIRGCCKTPKQKFQSIR	not soluble
MTVELCGRWDARDVAGGRYRVINNVWGAETAQCIEVGLETGNFTITRADHDNGNNVAAYPAIYFGCHWGACTSNSGLPRRVQELSDVRTSWTLTPITTGRWNAAYDIWFSPVTNSGNGYSGGAELMIWLNWNGGVMPGGSRVATVELAGATWEVWYADWDWNYIAYRRTTPTTSVSELDLKAFIDDAVARGYIRPEWYLHAVETGFELWEGGAGLRSADFSVTVQKLAAALEIKRASQPELAPEDPEDVEHHHHHH	soluble
MGSDKIHHHHHHMYNVGGVVLKRYFVAPGRINVIGEHTDYNEGFVLPVAIDKYVLLSVEKTSGSKISLSSMGREPVSFDESKIQKTGDWSDYLKGVLWVLKDELGTEFGGMSIEINSNLPEGAGLSSSAAVEVAMIVALNSSFNLKLDETELYDYARKAENEFVGVKCGVMDQFAAVMGKKDKAIFLDTLEMRYEYVPLELGDYTFLVFDSKVHHSLSKGGYNTRREEARKALEILGKSSYRDVSMVDLFPNRSRLGELYYRRALHVVSENMRVLESVKIMSNSNFENLGRLLIQSHESLALDYEVSCDETDFIVNTLREMKGVSGARMIGAGFGGSVLSLCEKEEEKKIVEVIKTRYKERFGIDLDSYEVRTSDGAREVDSSFSL	not soluble
MSLEISNRLKSISEVMDRCEIAADIGTDHAYLPIYLIKNNLCKRFIASDVNAGPLKKAINNINKYKLEDKIECRLGSGLNVLKLEEVDVVVIAGMGGNLIRDIIEERLDIFKKLKYAVLQPVQNPEILREYLIKRGFNIIEEQLCIDESKYYEIIKVCYDSKIEDKDDVYYEIGDKLIDMKHPLLKEYINYKIRKYDKIYKNISEESLNALSRKNELSIKIRKLKELLSCLEGHHHHHH	soluble
MGSDKIHHHHHHMNLWTSTPPMLRQISVRAAMDILLHQGPTSRADLAKKTGLSKQTMSEVIRTLETAGWVRVKGIVSGKVGRSAVTYEVAPDAGFVIGMDIGATTIRVAIADIAGTIVHEVEKSAGEHGGEALLAHVSGVVEASLKKARVSRSKVLLAAVAMPGVIDPETGRLSLAPNLSEIGSLDVIKALQGIFRCDVIIENDVNAAVIGESWKGSGIGLDSVAFVSLGTGIGLGVLFNGKLMRGAKGAAGEIGYLPFGADPYNSESLERGALECAIGARGILERYGNPGDGGMTVRDILEAAEKGDAKALATVQETARLAALLVVSVHAMLDPGKIILGGNVGRNPLMVRMVKEALATSTRSSISLEASTLASRATLVGAVAIALNQLHNALFSPQDLPSEMRLPA	not soluble
MDVHIDNQVLSGLGTPLLVHLFVPDTVMAELCPNRVPNCEGAWCQTLFSDRTGLTRVCRVFAARGMLPGRPSHRGTFTSVPVYCDEGLPELYNPFHVAALRFYDEGGLVGELQIYYLSLFEGAKRALTDGHLIREASGVQESAAAMQPIPIDPGPPGGAGIEHMPVAAAQVEHPKTYDLKQILLEITQEENRGEQRLGHAGSPALCLGLRLRAGAETKAAAETSVSKHHPALENPSNIRGSAGGEGGGGRAGTGGTVGVGSGALSRVPVSFSKTRRAIRESRALVRGIAHIFSPHALYVVTYPELSAQGRLHRMTAVTHASPATDLAEVSILGAPEREFRFLISVALRISASFREKLAMQAWTAQQEIPVVIPTSYSRIYKNSDLIREAFFTVQTRVSWESCWVKATISNAPKTPDACLWIDSHPLYEEGASAWGKVIDSRPPGGLVGAASQLVALGTDGHCVHLATTSDGQAFLVLPGGFVIKGQLALTPEERGYILARHGIRREQ	not soluble
MGSDKIHHHHHHMFSKKVKWEETMTYKSIRALERGIDVLQYLNTVKGAAPPEIAENVNLPRPTVHRILETLSELNLVYRSQLGDEYRLSSGVQRLAGNRSSVRLNWIDEIALPALLELTSEIIWPSDIAVCHKAAMIIQGTTHRISPMSCDVGMVGNRRSMLMSPLGRAYLSHCPDDELKSILCALNASSASEDKGARDRAFIKEIIETGRRDGVSACNERPHPRCASLAAPIRLNGKVLACMNVVWRANMLTIEDAMDQIRDPLLATRDRIEAQLHEQFARPALGSTSFPETYTLRTGTRDRLPHSLALA	not soluble
MNITATSLDSEDELSIKYMDAVDNINILKRYGCDIQHEVDVHTMSFDNSLSLQRYDRIVFNFPHAGSRFFGRELSSRAIESHKELVRGFLENAKEMLEEDGEIHITHKTTYPFSDWGIKKLGKGEGLKLLKKSKFELSHYPGYITKRGSGGRRSDDYFPVDVDPCDLKGFEVLEIYHPSMSDGFVNSVMVARKLTDRLIKYEWCTGTRSLNSLKKTRQTEPDQFNKREINRSGPGQVAEEEEEVVAVMMMMTSLGGGAGGGGGGGGSGGGRFVTYPPPLSVPPSAPQSPNFSGGLRSQPSFLVEQEKYLSELLAERHKLTPFLPVLPHVCRLMNQEILRVTTLLENALSQSRFDHPSPLASGGIFQNSRADMNGWASQFPSERSVSSSPAPNWLNSPGSSSGLIVKRTIRVDIPVDKYPNYNFVGRLLGPRGNSLKRVEASTDCRVLIRGRGSIKDPIKEDMMRGKPGYEHLNEPLHILVEAELPIEIVDARLMQAREILDDLLTPVEETHDFYKKQQLRELALLNGSLREEGSPMSGSISPYNSLGMKRAKTRG	soluble
MNIFNPNHDRKAIVIFSGGQDSTTCLFQAIAEYGKENIEAITFQYGQRHAIELEKARTIAQDLGIKQTLIDTSVMKAITHNALMDEQAHIEQKENELPNTFVDGRNALFLLYAAIYAKGQGIQDIITGVCETDFSGYPDCRDVFIKSMNVTLNLAMDYPIPISKTPLMYLTKAQTWQLADEFRRIRLCTKTYSHLL	not soluble

Reference: the DeepSol protein solubility set
